Experimental data published in patent US20060270591A1, “Androgen receptor coregulators” (priority 2002, published 2006).

Assays:
Type in all cases: cell-based, human
AR [1] = assay: AR transactivation assay, MMTV-CAT reporter, transient transfection (Example 1); settings: for AR transcription activity with cotransfected coactivator: wild type AR
Procedure: Human prostate cancer DU145 or PC3 cells, or human lung carcinoma cells NCI H1299 were grown in Dulbecco's minimal essential medium (DMEM) containing penicillin (25 U/ml), streptomycin (25˜g/ml), and 5% fetal calf serum (FCS). One hour before transfection, the medium was changed to DMEM with 5% charcoal-stripped FCS. […] A β-galactosidase expression plasmid, pCMV-β-gal, was used as an internal control for transfection efficiency.
The medium was changed 24 hr posttransfection and the cells treated with either steroid hormones or hydroxyflutamide, and cultured for an additional 24 hr. Cells were harvested and assayed for CAT activity after the cell lysates were normalized by using β-galactosidaseas an internal control. Chloramphenicol acetyltransferase (CA) activity was visualized by PhosphorImager (Molecular Dynamics) and quantitated by ImageQuant software (Molecular Dynamics).

AR [2] = assay: AR transactivation reporter assay (CAT/luciferase) (Example 3); settings: for effect of ARA70N construct on AR transactivation: COS-1 cells, 10 nM T, MMTV-LUC
Procedure: 21. […] Further adding GAL-DBD (lane 1 and 2) or GAL-DBD-ARA70N with wild type (lane 3 and 4) or mutant (lane 5-8) FXXLF motifs to the cells. (B) Effect of wild type and mutant FXXLF motifs ARA70N on AR transactivation in COS-1 cells. […] 0.5 ng SV40-Renila Luciferase was used as an internal control. Relative luciferase activity was calculated by dual luciferase system.
411. Human prostate cancer DU145 and PC-3 cells were maintained in Dulbecco's Minimum Essential Medium (DMEM) containing penicillin (25 U/ml), streptomycin (25 μg/ml), and 5% fetal calf serum (FCS). Human LNCaP cells were maintained in RPMI containing penicillin (25 U/ml), streptomycin (25 μg/ml), and 10% FCS. Transfections were performed using the calcium phosphate precipitation method, as previously described (Dynlacht et al. (1991) Cell 66, 563-576). Briefly, 4×10^5 cells were plated on 60-mm dishes 24 hours before transfection, and the medium was changed to DMEM with 5% charcoal-dextran stripped FCS (CS-FBS) one hour before transfection. Transfection medium contained a constant amount of reporter plasmid and indicated amounts of pSG5-receptor, ARA70, or pCMX-GAL fusion construct using pSG5 as a carrier to provide equal amounts of transfected DNA. […] After another 24 hours, the cells were harvested for chloramphenicol transferase (CAT) or luciferase assays. At least three independent experiments were carried out in each case. Superfect (Qiagen) was used for transfection in LNCaP cells. The transfection conditions followed the manufacturer's protocol. Cell extracts were prepared and assayed for CAT or luciferase activity (Promega) and normalized against β-galactosidase or Renilla luciferase activity as indicated. All data were the mean±SD results from three to six independent experiments.
Target sequence in this assay (P10275 whole entry, the tested form may be a part): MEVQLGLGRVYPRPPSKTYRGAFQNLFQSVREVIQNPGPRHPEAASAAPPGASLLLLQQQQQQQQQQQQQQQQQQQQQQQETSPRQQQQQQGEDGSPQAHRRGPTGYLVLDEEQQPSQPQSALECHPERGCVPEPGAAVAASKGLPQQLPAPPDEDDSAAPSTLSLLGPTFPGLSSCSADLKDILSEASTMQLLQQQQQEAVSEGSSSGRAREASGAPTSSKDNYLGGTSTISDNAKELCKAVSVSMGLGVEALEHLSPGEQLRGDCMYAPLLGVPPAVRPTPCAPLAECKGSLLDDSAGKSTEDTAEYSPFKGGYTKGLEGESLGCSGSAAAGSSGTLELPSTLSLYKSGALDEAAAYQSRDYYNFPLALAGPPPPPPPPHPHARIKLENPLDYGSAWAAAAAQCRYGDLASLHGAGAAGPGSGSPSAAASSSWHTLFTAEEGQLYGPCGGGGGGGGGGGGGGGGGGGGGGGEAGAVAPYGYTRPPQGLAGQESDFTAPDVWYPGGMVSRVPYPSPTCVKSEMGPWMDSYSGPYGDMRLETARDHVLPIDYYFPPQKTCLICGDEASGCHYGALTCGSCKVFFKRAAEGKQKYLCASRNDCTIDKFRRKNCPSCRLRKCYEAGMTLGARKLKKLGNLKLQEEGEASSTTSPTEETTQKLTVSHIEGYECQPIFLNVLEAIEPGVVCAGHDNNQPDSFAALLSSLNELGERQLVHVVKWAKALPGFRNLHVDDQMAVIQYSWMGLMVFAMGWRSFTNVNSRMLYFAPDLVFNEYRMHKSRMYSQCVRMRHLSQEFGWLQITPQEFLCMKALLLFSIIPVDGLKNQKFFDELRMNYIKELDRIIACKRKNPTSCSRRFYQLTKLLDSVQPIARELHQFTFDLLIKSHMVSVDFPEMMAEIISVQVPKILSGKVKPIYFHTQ

PSA = PSA northern and western blot in LNCaP cells (Example 3); settings: 1 nM DHT
Source text: 20. […] (A) ARA70-N2 can serve as a dominant-negative to inhibit coregulator enhanced AR activity in DU145 cells. The pCMV-β-gal construct was used as an internal control, and the relative CAT activity was normalized by the β-gal activity. Data represent the mean±S.D. of four independent experiments. (B) ARA70-N2 can serve as a dominant-negative repressor to compete with the function of endogenous coregulators and inhibit AR transactivation in LNCaP cells. (C) ARA70-N2 can serve as a dominant-negative repressor to inhibit the expression of PSA mRNA in LNCaP cells. Human prostate cancer LNCaP cells were transfected with 4 and 8 μg of ARA70-N2 for 3 hours. […] The blot containing 20 μg total RNA in each lane was hybridized with a PSA specific cDNA probe. […] (D) ARA70-N2 can inhibit PSA protein expression in a dominant-negative manner. 4×10^6 LNCaP cells were plated on 100-mm dishes 24 hours before transfection. […] The blot containing 70 μg total cell lysate in each lane was hybridized with a PSA specific antibody. The same membrane was hybridized with a specific antibody for β-actin for equal protein loading.

AR [3] = assay: Mammalian two-hybrid CAT assay, interaction with AR in DU145 cells (Example 1)
Source text: 368. The mammalian two-hybrid system employed was essentially the protocol of Clontech (California), with the following modifications. In order to obtain better expression, the GAL4 DBD (a.a. 1-147) was fused to pSGS under the control of an SV40 promoter, and named pGALO.
369. The hinge and LBD of wtAR were then inserted into pGALO. Similarly, the VPI6 activation domain was fused to pCMX under the control of a CMV promoter, and designated pCMX-VP16 (provided by Dr. R. M. Evan).
Target sequence in this assay (P10275 669-900 limits assumed): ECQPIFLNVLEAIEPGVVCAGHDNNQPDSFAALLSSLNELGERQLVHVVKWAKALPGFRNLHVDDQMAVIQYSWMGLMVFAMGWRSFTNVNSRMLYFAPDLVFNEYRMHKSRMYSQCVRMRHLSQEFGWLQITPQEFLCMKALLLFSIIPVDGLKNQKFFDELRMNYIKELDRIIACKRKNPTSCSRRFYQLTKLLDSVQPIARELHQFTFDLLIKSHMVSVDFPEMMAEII

B1: ARA55: AR coactivator, 444 aa polypeptide with high homology to mouse hic5 (protein)
chain: ANFNQSGNIADSSLSFTFTNSSNGPNLITTQTNSQALSQPIASSNVHDNFMNNEITASKIDDGNNSKPLSPGWTDQTAYNAFGITTGMFNTTTMDDVYNYLFDDEDTPPNPKKEMPRSGAPKERPAEPLTPPPSYGHQPTGQSGESSGASGDKDHLYSTVCKPRSPKPAAPAAPPFSSSSGVLGTGLCELDRLLQELNATQFNITDEIMSQFPSSKVASGEQKEDQSEDKKRPSLPSSPSPGLPKASATSATLELDRLMASLPDFRVQNHLPASGPTQPPVVSSTNEGSPSPPEPTAKGSLDTMLGLLQSDLSRRGVPTQAKGLCGSCNKPIAGQVVTALGRAWHPEHFVCGGCSTALGGSSFFEKDGAPFCPECYFERFSPRCGFCNQPIRHKMVTALGTHWHPEHFCCVSCGEPFGDEGFHEREGRPYCRRDFLQLFAPRCQGCQGPILDNYISALSLLWHPDCFVCRECFAPFSGGSFFEHEGRPLCENHFHARRGSLCPTCGLPVTGRCVSALGRRFHPDHFACTFCLRPLTKGSFQERAGKPYCQPCFLKLFG
AR [1]; DHT 10^−11 to 10^−8 M, all three receptors
  enhancement of transactivation of wtAR, mARt877s and mARe708k: 4-8 fold
AR [1]; DU145 cells, 10 nM DHT, AR:ARA55 up to 1:4.5
  further increase of the DHT induction: 5.3 fold
AR [1]; DU145 cells, 10 nM DHT, with ARA55
  AR transcription activity with coactivator: 22.8 fold
AR [1]; PC3 cells
  increase of AR transcription activity upon transfection with exogenous ARA55: 4 fold

B2: ARA55251-444: C-terminus of ARA55 (a.a. 251-444 of SEQ ID NO:4) (protein)
chain: EKDGAPFCPECYFERFSPRCGFCNQPIRHKMVTALGTHWHPEHFCCVSCGEPFGDEGFHEREGRPYCRRDFLQLFAPRCQGCQGPILDNYISALSLLWHPDCFVCRECFAPFSGGSFFEHEGRPLCENHFHARRGSLCPTCGLPVTGRCVSALGRRFHPDHFACTFCLRPLTKGSFQERAGKPYCQPCFLKLFG
modifications: Homo sapien
AR [1]; PC3 cells, endogenous ARA55, 10 nM DHT
  effect on AR transcription activity: dramatically reduced AR transcription activity

B3: ARA70-N2: ARA70 region between amino acids 176-401, dominant-negative repressor (protein, UniProt Q13772 176-401, looked up, fragment)
chain: GPFLEKRGCISMPEQKSASGIVAVPFSEWLLGSKPASGYQAPYIPSTDPQDWLTQKQTLENSQTSSRACNFFNNVGGNLKGLENWLLKSEKSSYQKCNSHSTTSSFSIEMEKVGDQELPDQDEMDLSDWLVTPQESHKLRKPENGSRETSEKFKLLFQSYNVNDWLVKTDSCTNCQGNQPKGVEIENLGNLKCLNDHLEAKKPLSTPSMVTEDWLVQNHQDPCKVE
AR [2]; DU145 cells
  effect on ARA70N-enhanced AR transactivation: inhibit ARA70N-enhanced AR transactivation
PSA
  effect on PSA mRNA and protein expression: repressed PSA mRNA

B4: Rb: retinoblastoma protein (protein, UniProt P06400 2-928, looked up)
Retinoblastoma-associated …: PPKTPRKTAATAAAAAAEPPAPPPPPPPEEDPEQDSGPEDLPLVRLEFEETEEPDFTALCQKLKIPDHVRERAWLTWEKVSSVDGVLGGYIQKKKELWGICIFIAAVDLDEMSFTFTELQKNIEISVHKFFNLLKEIDTSTKVDNAMSRLLKKYDVLFALFSKLERTCELIYLTQPSSSISTEINSALVLKVSWITFLLAKGEVLQMEDDLVISFQLMLCVLDYFIKLSPPMLLKEPYKTAVIPINGSPRTPRRGQNRSARIAKQLENDTRIIEVLCKEHECNIDEVKNVYFKNFIPFMNSLGLVTSNGLPEVENLSKRYEEIYLKNKDLDARLFLDHDKTLQTDSIDSFETQRTPRKSNLDEEVNVIPPHTPVRTVMNTIQQLMMILNSASDQPSENLISYFNNCTVNPKESILKRVKDIGYIFKEKFAKAVGQGCVEIGSQRYKLGVRLYYRVMESMLKSEEERLSIQNFSKLLNDNIFHMSLLACALEVVMATYSRSTSQNLDSGTDLSFPWILNVLNLKAFDFYKVIESFIKAEGNLTREMIKHLERCEHRIMESLAWLSDSPLFDLIKQSKDREGPTDHLESACPLNLPLQNNHTAADMYLSPVRSPKKKGSTTRVNSTANAETQATSAFQTQKPLKSTSLSLFYKKVYRLAYLRLNTLCERLLSEHPELEHIIWTLFQHTLQNEYELMRDRHLDQIMMCSMYGICKVKNIDLKFKIIVTAYKDLPHAVQETFKRVLIKEEEYDSIIVFYNSVFMQRLKTNILQYASTRPPTLSPIPHIPRSPYKFPSSPLRIPGGNIYISPLKSPYKISEGLPTPTKMTPRSRILVSIGESFGTSEKFQKINQMVCNSDRVLKRSAEGSNPPKPLKKLRFDIEGSDEADGSKHLPGESKFQQKLAEMTSTRTRMQKQKMNDSMDTSNKEEK
AR [1]; DU145 cells, 1 nM DHT
  AR transcription activity with cotransfected coactivator: 21 fold
AR [1]; DU145 cells, 10 nM E2
  AR transcription activity with cotransfected coactivator: 12 fold
AR [3]
  induced CAT activity in mammalian two-hybrid assay: 3 fold

B5: pSG5-ARA70N-AXXLF: ARA70N with FXXLF motif mutated to AXXLF (protein)
chain: MNTFQDQSGSSSNREPLLRCSDARRDLELAIGGVLRAEQQIKDNLREVKAQIHSCISRHLECLRSREVWLYEQVDLIYQLKEETLQQQAQQLYSLLGQFNCLTHQLECTQNKDLANQVSVCLERLGSLTLKPEDSTVLLFEADTITLRQTITTFGSLKTIQIPEHLMAHASSANIGPFLEKRGCISMPEQKSASGIVAVPFSEWLLGSKPASGYQAPYIPSTDPQDWLTQKQTLENSQTSSRACNFFNNVGGNLKGLENWLLKSEKSSYQKCNSHSTTSSFSIEMEKVGDQELPDQDEMDLSDWLVTPQESHKLRKPENGSRETSEKFKLLFQSYNVNDWLVKTDSCTNCQGNQPKGVEIENLGNLKCLNDHLEAKKPLSTPSMVTEDWLVQNHQDPCKVE
AR [2]
  effect of ARA70N construct on AR transactivation: marginal induction effect

B6: pSG5-ARA70N-FXXAA: ARA70N with FXXLF motif mutated to FXXAA (protein)
chain: B5 chain
AR [2]
  effect of ARA70N construct on AR transactivation: marginal induction effect
